The results in this text go back to patent US20190134153A1, “IMMUNOMODULATORY EFFECT OF INHALED KINASE INHIBITOR PEPTIDES IN LUNG” (MOERAE MATRIX, INC., priority 2017, published 2019).

Some targets named below: CLK3(h) (Homo sapiens, UniProt P49761); MAPK2(h) (Homo sapiens, UniProt P28482); MELK(h) (Homo sapiens, UniProt Q14680); Mnk2(h) (Homo sapiens, UniProt Q9HBH9); MSSK1(h) (Homo sapiens, UniProt Q9UPE1); Pim-3(h) (Homo sapiens, UniProt Q86V86); SAPK2a(h) (Homo sapiens, UniProt Q16539); TLK2(h) (Homo sapiens, UniProt Q86UE8).
What all share (test): Kinase Profiling Assay
Holding throughout (format): biochemical
Conditions in all cases: 100 μM

For the next experiment, the target named is T1, IRAK4(h) (Homo sapiens, UniProt Q9NWZ3).
T1 sequence (Q9NWZ3 1-460): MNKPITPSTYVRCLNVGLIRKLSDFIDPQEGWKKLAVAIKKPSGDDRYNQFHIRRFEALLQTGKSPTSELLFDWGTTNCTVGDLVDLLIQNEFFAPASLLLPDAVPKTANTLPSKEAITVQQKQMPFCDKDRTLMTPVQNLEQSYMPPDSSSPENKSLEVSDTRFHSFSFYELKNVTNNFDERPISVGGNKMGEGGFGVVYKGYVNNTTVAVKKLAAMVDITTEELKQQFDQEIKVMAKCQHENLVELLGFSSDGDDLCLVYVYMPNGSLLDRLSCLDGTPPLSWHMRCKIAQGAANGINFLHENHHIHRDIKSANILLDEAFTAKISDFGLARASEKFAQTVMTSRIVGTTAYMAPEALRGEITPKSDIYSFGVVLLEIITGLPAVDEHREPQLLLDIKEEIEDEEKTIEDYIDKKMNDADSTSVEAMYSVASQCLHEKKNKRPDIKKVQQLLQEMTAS

For the next experiment, the target named is T2, PKD2(h) (Homo sapiens, UniProt Q9BZL6).
T2 sequence (Q9BZL6 1-878): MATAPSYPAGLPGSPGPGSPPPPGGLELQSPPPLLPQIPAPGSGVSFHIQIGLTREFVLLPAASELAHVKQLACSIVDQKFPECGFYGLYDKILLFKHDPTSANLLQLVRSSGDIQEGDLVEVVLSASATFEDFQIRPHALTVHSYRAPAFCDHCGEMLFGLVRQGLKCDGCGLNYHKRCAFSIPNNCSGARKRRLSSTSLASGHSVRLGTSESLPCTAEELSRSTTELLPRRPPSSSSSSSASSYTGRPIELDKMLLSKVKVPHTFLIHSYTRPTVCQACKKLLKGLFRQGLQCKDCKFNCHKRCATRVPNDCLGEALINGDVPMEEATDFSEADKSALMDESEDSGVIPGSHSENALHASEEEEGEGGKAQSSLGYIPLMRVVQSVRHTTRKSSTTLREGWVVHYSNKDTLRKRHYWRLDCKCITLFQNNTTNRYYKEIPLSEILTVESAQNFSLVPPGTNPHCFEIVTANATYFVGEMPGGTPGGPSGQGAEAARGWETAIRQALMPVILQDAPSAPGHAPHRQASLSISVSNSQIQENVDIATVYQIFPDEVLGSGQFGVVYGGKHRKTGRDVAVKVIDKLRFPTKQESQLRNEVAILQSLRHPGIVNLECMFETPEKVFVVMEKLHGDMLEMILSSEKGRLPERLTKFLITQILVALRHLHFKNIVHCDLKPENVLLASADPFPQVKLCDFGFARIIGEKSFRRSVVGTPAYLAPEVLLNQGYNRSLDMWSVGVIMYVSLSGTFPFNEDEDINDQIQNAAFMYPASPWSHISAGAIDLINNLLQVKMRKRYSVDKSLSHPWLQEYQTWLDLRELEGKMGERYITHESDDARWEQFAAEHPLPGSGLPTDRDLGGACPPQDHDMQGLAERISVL

The target of a further experiment is T3, SGK2(h) (Homo sapiens, UniProt Q9HBY8).
T3 sequence (Q9HBY8 1-367): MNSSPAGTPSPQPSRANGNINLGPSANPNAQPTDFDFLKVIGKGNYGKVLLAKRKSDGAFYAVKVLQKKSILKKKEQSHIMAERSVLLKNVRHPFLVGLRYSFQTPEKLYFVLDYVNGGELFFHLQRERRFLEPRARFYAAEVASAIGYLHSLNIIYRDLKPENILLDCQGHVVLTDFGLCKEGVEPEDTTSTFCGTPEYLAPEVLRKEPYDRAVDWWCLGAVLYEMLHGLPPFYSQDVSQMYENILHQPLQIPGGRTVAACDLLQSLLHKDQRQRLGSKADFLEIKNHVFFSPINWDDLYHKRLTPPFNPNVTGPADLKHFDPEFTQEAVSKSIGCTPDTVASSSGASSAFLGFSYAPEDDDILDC

A further experiment deals with T4, TAK1(h) (Homo sapiens, UniProt O43318).
T4 sequence (O43318 1-303 limits assumed): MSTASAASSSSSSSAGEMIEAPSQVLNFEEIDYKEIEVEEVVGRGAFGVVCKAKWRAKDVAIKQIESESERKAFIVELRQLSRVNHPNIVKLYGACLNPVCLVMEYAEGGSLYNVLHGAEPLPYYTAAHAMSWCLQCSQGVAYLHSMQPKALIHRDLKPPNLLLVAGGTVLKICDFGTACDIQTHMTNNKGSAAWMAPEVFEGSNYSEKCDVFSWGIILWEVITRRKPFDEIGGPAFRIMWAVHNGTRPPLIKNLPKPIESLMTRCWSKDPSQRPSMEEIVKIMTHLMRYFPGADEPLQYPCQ

Mnk2(h), sequence (Q9HBH9 whole entry): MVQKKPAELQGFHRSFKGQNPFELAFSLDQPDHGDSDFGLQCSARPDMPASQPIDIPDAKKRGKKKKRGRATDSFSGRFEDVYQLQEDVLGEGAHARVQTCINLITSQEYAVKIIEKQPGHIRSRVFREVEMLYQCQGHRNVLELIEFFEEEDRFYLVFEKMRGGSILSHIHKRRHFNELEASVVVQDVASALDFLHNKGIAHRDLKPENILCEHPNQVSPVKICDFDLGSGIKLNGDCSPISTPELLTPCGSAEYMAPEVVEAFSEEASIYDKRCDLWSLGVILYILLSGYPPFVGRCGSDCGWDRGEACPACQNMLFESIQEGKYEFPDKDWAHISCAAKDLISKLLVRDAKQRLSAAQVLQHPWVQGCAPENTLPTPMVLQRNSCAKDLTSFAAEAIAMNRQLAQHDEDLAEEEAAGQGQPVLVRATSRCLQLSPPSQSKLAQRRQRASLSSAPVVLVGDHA
MAPK2(h), sequence (P28482 whole entry): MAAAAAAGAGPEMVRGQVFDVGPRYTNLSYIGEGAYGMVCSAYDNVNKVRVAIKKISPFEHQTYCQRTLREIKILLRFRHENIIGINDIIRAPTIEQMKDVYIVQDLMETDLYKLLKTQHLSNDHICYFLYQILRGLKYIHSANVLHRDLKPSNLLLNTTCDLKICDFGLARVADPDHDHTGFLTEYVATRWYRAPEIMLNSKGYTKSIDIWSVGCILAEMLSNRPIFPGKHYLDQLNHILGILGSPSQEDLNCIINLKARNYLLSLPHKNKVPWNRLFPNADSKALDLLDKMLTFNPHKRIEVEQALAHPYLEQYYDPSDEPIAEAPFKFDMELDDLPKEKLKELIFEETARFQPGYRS
CLK3(h), sequence (P49761 whole entry): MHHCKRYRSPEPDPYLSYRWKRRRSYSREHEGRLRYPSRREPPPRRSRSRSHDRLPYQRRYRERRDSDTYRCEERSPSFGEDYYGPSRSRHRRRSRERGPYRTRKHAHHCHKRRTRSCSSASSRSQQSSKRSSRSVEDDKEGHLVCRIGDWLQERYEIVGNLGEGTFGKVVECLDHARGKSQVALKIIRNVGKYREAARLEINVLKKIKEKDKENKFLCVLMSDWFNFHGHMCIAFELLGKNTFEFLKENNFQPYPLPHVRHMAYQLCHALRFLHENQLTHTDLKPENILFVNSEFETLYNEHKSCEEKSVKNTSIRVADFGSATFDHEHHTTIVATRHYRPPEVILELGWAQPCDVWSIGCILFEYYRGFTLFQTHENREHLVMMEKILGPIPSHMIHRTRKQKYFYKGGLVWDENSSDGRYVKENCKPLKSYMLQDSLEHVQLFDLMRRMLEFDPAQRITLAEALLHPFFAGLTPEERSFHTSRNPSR
MELK(h), sequence (Q14680 whole entry): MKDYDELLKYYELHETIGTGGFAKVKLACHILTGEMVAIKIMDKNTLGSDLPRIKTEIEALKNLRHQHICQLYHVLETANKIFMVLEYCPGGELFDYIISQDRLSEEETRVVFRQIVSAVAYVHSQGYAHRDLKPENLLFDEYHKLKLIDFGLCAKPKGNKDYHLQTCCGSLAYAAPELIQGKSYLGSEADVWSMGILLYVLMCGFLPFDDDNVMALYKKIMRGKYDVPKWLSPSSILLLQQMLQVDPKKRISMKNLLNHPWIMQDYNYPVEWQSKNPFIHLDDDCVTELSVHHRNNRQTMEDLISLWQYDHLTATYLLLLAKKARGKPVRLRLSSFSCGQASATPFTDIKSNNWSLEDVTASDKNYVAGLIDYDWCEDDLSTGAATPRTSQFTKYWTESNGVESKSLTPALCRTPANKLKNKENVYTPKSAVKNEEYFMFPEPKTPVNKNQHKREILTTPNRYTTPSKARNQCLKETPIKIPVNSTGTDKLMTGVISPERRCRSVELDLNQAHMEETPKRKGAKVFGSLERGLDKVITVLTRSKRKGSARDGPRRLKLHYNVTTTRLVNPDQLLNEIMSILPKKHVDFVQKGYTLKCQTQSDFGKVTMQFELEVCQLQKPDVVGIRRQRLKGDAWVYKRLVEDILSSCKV
TLK2(h), sequence (Q86UE8 whole entry): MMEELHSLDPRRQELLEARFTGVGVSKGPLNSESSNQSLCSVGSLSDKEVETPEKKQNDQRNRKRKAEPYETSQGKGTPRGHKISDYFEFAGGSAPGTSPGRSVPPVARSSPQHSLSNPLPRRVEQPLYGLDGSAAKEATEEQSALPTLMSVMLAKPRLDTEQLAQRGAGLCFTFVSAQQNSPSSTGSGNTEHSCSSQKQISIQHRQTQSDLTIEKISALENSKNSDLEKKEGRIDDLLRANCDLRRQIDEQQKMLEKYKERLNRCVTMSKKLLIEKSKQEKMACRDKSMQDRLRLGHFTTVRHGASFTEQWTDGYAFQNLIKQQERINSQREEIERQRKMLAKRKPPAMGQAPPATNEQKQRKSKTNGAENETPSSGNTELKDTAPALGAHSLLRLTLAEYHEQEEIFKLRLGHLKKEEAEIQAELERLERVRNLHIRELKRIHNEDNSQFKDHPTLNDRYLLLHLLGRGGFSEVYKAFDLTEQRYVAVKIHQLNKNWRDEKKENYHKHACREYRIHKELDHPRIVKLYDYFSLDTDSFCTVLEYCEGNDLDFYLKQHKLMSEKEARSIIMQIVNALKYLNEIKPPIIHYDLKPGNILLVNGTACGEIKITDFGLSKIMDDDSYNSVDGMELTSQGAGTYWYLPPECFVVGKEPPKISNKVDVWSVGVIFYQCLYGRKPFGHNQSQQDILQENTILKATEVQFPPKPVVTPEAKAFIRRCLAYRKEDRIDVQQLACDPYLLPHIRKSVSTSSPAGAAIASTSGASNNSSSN
SAPK2a(h), sequence (Q16539 whole entry): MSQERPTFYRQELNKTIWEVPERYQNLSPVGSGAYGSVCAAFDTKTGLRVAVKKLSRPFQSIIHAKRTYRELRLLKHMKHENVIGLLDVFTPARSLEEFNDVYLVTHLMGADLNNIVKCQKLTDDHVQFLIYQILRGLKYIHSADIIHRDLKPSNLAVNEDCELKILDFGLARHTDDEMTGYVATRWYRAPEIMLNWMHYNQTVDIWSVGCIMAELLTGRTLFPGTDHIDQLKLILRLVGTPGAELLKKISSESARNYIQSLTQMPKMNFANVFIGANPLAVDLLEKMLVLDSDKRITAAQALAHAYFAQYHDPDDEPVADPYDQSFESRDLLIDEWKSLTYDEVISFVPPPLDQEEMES
MSSK1(h), sequence (Q9UPE1 whole entry): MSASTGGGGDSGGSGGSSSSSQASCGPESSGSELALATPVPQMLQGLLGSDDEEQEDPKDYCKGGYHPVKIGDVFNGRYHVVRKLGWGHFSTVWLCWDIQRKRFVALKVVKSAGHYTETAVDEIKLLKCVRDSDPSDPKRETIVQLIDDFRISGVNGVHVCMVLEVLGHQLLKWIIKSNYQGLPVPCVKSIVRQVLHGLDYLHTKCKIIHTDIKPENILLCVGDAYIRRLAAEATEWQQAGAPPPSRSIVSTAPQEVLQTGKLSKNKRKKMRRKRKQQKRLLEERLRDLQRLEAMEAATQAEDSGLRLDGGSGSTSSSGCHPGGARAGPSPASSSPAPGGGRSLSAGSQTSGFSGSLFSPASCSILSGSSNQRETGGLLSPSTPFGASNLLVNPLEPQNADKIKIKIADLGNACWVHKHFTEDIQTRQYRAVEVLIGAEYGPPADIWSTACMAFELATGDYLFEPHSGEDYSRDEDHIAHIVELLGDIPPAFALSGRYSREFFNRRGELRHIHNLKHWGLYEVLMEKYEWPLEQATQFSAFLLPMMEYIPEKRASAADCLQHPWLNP

On to FAKLAARLYRKALARQLGVAA [MMI-0300], for which the “% activity” value with CLK3(h) is given as 61%; with IRAK4(h) it was 59%; in the experiment with MAPK2(h) it was 98%; with MELK(h) it was 16%; with Mnk2(h), 89%; with MSSK1(h) it was 77%. Further, the “% activity” value with Pim-3(h) worked out at 80%; with PKD2(h) it was 33%; in the experiment with SAPK2a(h), 90%; in the experiment with SGK2(h), 56%; with TAK1(h), 122%.

As to YARAAARQARAKALNRQLGVA [MMI-0200], the “% activity” value in the experiment with CLK3(h) came to 76%; in the experiment with IRAK4(h) it was 110%; in the experiment with MELK(h), 59%; with MSSK1(h) it was 100%; with Pim-3(h), 94%; with PKD2(h) it was 78%. For the same sequence, the “% activity” value with TAK1(h) stood at 124%; with TLK2(h) it was 129%.

As for KAFAKLAARLYRKALARQLGVAA [MMI-0400], the “% activity” value with CLK3(h) is given as 84%; with IRAK4(h), 59%; with MAPK2(h), 93%; with MELK(h), 17%; in the experiment with Mnk2(h) it was 86%; with MSSK1(h), 75%. Besides, the “% activity” value with Pim-3(h) was 80%; in the experiment with PKD2(h), 25%; in the experiment with SAPK2a(h) it was 85%; with SGK2(h) it was 98%; with TAK1(h) it was 177%; with TLK2(h) it was 151%.

HRRIKAWLKKIKALARQLGVAA [MMI-0500]: the “% activity” value is recorded as 76% with CLK3(h); 3% in the experiment with IRAK4(h); 60% with MAPK2(h); 0% in the experiment with MELK(h); 6% with Mnk2(h); 22% in the experiment with MSSK1(h). For the same sequence, the “% activity” value is 37% with Pim-3(h); 10% with PKD2(h); 52% in the experiment with SAPK2a(h); −1% with SGK2(h); 133% with TLK2(h).
